The text below walks through data of patent publication US20110123533A1.

The target in assay [1] is T1, CD133 (prominin) (human) (UniProt O43490).
T1 sequence (glycosylated (the AC133 epitope is known to be glycosylated), looked up): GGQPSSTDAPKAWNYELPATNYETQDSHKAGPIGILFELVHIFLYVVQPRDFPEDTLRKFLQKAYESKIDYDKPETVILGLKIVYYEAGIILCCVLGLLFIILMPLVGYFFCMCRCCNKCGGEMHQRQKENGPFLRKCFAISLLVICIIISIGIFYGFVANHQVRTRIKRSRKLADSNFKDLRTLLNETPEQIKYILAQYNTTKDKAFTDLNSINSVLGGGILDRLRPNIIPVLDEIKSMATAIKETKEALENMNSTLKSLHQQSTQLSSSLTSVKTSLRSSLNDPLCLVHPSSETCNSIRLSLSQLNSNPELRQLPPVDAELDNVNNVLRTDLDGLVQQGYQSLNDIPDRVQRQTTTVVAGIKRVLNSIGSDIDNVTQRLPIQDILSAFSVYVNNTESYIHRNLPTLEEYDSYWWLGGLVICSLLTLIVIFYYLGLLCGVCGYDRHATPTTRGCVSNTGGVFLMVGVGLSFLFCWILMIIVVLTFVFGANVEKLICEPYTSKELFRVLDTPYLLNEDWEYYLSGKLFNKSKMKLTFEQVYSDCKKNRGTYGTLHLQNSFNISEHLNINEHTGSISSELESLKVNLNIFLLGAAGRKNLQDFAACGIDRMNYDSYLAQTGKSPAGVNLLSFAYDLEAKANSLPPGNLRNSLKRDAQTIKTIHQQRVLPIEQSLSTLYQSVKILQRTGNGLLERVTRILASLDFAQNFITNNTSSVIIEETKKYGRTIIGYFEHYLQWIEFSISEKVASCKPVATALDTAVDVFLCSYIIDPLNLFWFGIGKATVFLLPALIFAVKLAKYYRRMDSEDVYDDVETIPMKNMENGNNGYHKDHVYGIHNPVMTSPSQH
In words: ELISA on membrane fraction from Caco-2 cells. A general note: An ELISA detects its analyte on a solid surface through an enzyme-linked reagent.

Assay [2] deals with T1, CD133 (prominin) (human). In words: ELISA on plasma membrane fraction of Caco-2 cells; relative equilibrium constant.
The target in assay [3] is T1, CD133 (prominin) (human). The experiment in a line: ELISA on membrane fraction of Caco-2 cells.

In turn, scFv-AC133 had a fold lower affinity than the monoclonal antibody from which the scFv was derived in assay [1] of 3 fold. In assay [2], the dissociation constant (Kd) (in general, a measure of binding affinity in units of concentration) was found to be 155 nM. The fold lower relative binding affinity than anti-CD133 monoclonal antibody in assay [3] was 2 fold.

B1: AC133 mouse monoclonal antibody purified from hybridoma (antibody, from another filing, V domains shown)
VH: QVQLQQSGAELVRPGASVKLSCKASGYTFSDFEMHWVKQTPVHGLEWIGDIDPGTGDTAYNLKFKGKATLTTDKSSSTAYMELRSLTSEDSAVYYCTLGAFVYWGQGTLVTVSA
VL: DVVVTQTPLSLPVSFGDQVSISCRSSQSLANSYGNTYLSWYLHKPGQSPQLLIYGISNRFSGVPDRFSGSGSGTDFTLKISTIKPEDLGMYYCLQGTHQPYTFGGGTKLEIKR
For B1, the Kd in assay [2] was 83 nM.
